Data reported in patent US7579180B2, “Beta secretase polypeptides” (Amgen Inc., priority 1999, dated 2009).

Target: T1, human beta-secretase-Fc fusion (Homo sapiens, UniProt P56817)
T1 construct: A plasmid containing cDNA encoding amino acids 1-460 of beta-secretase fused to the Fc portion of human IgG; made in house; host or cells: human embryonic kidney 293T cells, stably transfected; purified from conditioned medium on protein A
Test: Beta-secretase activity assay: cleavage of DNP-labeled APP peptides, HPLC
Assay type: biochemical
Conditions: Sw, Wt and MV peptides; FIG. 11
Procedure: FIG. 11 is a graph depicting the ability of human beta-secretase-Fc fusion to cleave various APP peptides. The X-axis is the amount of enzyme in the reaction mixture and the Y-axis is the amount of cleavage (denoted as pmol product formed) of each of three substrate peptides. “Sw” refers to the APP peptide with the Swedish mutation; “Wt” refers to wild type APP peptide; and “MV” refers to a mutated APP peptide.
Recombinant native as well as mutant beta secretase polypeptides were assayed for activity by measuring the ability of the molecule to cleave various A-beta peptides.
Each assay was conducted as follows. […] Quenched reactions were analyzed by HPLC on a 5 μm, C18 reversed-phase column (Sephasil Peptide, 4.6×100 mm; Amersham Pharmacia Biotech, Piscataway, N.J.) using first a linear gradient of 18-31.5 percent acetonitrile in 0.1 percent TFA over 40 minutes, then 31.5-81 percent acetonitrile for 1 minute, then 81 percent acetonitrile for 4 minutes, and then returning to 18-percent acetonitrile for several minutes to reequilibrate the column. […] Proteolysis of the Sw and WT octapeptides was evaluated using a linear gradient of 27-37.8 percent acetonitrile over 24 minutes on the same column.
Both product and substrate were monitored by absorbance at 360 nm. […]
The concentration of standard was determined from the extinction coefficient of DNP (e365nm=16 mM^−1cm^−1). […]

T1 sequence (P56817 with tags, fused parts or gaps limits assumed): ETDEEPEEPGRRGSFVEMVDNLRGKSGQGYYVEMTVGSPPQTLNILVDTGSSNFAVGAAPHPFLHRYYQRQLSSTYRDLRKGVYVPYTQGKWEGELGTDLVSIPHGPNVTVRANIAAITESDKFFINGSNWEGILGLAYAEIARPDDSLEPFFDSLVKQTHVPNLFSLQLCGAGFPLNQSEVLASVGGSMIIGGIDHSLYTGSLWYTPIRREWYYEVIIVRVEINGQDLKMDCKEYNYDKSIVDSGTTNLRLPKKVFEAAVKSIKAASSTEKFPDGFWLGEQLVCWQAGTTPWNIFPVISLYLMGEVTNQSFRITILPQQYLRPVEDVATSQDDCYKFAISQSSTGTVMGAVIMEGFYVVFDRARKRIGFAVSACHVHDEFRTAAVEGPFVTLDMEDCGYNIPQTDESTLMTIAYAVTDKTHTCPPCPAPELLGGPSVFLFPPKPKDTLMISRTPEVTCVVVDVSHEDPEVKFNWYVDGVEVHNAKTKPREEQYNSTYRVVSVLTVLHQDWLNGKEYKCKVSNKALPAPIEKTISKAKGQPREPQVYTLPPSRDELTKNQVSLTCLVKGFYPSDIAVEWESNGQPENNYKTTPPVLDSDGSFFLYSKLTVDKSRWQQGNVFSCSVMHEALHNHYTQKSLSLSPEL

B1: beta-secretase-Fc: amino acids 1-460 of human beta-secretase fused to the Fc portion of human IgG1, alanine-valine-threonine at the junction (protein)
chain: TQHGIRLPLRSGLGGAPLGLRLPRETDEEPEEPGRRGSFVEMVDNLRGKSGQGYYVEMTVGSPPQTLNILVDTGSSNFAVGAAPHPFLHRYYQRQLSSTYRDLRKGVYVPYTQGKWEGELGTDLVSIPHGPNVTVRANIAAITESDKFFINGSNWEGILGLAYAEIARPDDSLEPFFDSLVKQTHVPNLFSLQLCGAGFPLNQSEVLASVGGSMIIGGIDHSLYTGSLWYTPIRREWYYEVIIVRVEINGQDLKMDCKEYNYDKSIVDSGTTNLRLPKKVFEAAVKSIKAASSTEKFPDGFWLGEQLVCWQAGTTPWNIFPVISLYLMGEVTNQSFRITILPQQYLRPVEDVATSQDDCYKFAISQSSTGTVMGAVIMEGFYVVFDRARKRIGFAVSACHVHDEFRTAAVEGPFVTLDMEDCGYNIPQTDESTLMTIAYAVT
modifications: left off: a dimerising Fc or GST
notes: amino acids 1-460 of human beta-secretase fused to the Fc portion of human IgG1, alanine-valine-threonine at the junction
- substrate specificity of the enzyme: has the same substrate specificity that has previously been described for beta-secretase from intact cells
